Assay results as given in the Immune Epitope Database (IEDB).

Columns and labels:
HLA-A*69:01 [1] = test: IEDB peptide-MHC binding, purified MHC/direct/fluorescence; filed as Kd, often an IC50 or EC50 that approximates it; ≥ and ≤ were set here for values at or beyond the usual limits of such assays
HLA-B*15:01 = test: as above
HLA-B*40:01 = test: as above
HLA-B*58:01 = test: as above
HLA-A*01:01 = test: as above
HLA-A*11:01 = test: as above
HLA-A*26:01 = test: as above
HLA-B*27:05 = test: as above
HLA-A*03:01 = test: as above
HLA-A*31:01 = test: as above
HLA-B*07:02 = test: as above
HLA-A*02:01 [2] = test: as above
HLA-B*08:01 = test: as above
HLA-B*44:02 = test: as above
HLA-B*35:01 = test: as above
HLA-A*30:01 = test: as above
HLA-A*23:01 = test: IEDB peptide-MHC binding, purified MHC/competitive/fluorescence; filed as Kd, often an IC50 or EC50 that approximates it; ≥ and ≤ were set here for values at or beyond the usual limits of such assays; conditions: source organism: Vibrio cholerae 2740-80
HLA-A*24:03 = test: IEDB peptide-MHC binding, purified MHC/direct/fluorescence; filed as Kd, often an IC50 or EC50 that approximates it; ≥ and ≤ were set here for values at or beyond the usual limits of such assays
HLA-C*14:02 = test: as above; conditions: source organism: Yellow fever virus
HLA-B*46:01 = test: as above; conditions: source organism: Yellow fever virus 17D
HLA-C*15:02 = test: as above; conditions: source organism: Yellow fever virus
HLA-B*51:01 = test: as above; conditions: source organism: Yellow fever virus 17D
HLA-A*02:11 = test: IEDB peptide-MHC binding, purified MHC/competitive/fluorescence; filed as Kd, often an IC50 or EC50 that approximates it; ≥ and ≤ were set here for values at or beyond the usual limits of such assays
HLA-A*02:01 [3] = test: as above
HLA-A*69:01 [4] = test: as above; conditions: source organism: Human immunodeficiency virus type 1 (BH5 ISOLATE)
HLA-A*02:19 = test: as above; conditions: source organism: Human immunodeficiency virus type 1 (BH5 ISOLATE)
HLA-A*02:06 = test: IEDB peptide-MHC binding, purified MHC/competitive/radioactivity; filed as Kd, often an IC50 or EC50 that approximates it; ≥ and ≤ were set here for values at or beyond the usual limits of such assays; conditions: source organism: HIV-1 M:B_ARV2/SF2
HLA-A*02:02 = test: as above; conditions: source organism: HIV-1 M:B_ARV2/SF2
HLA-A*02:03 = test: as above; conditions: source organism: HIV-1 M:B_ARV2/SF2
[5] = source organism: Salmonella enterica
[6] = source organism: Pseudomonas putida
[7] = source organism: Vibrio vulnificus
[8] = source organism: Giardia lamblia ATCC 50803
[9] = source organism: Orthohantavirus hantanense
[10] = source organism: Aggregatibacter actinomycetemcomitans
[11] = source organism: Human immunodeficiency virus type 1 (BH5 ISOLATE)
[12] = source organism: Vibrio cholerae

Sequence: AHSKAETEA
- Kd (HLA-A*69:01 [1]; [5]): ≥ 20 µM
- Kd (HLA-B*15:01; [5]): ≥ 20000 nM
- Kd (HLA-B*40:01; [5]): ≥ 20 µM
- Kd (HLA-B*58:01; [5]): ≥ 20 µM
- Kd (HLA-A*01:01; [5]): ≥ 20 µM
- Kd (HLA-A*11:01; [5]): ≥ 20 µM
- Kd (HLA-A*26:01; [5]): ≥ 20 µM
- Kd (HLA-B*27:05; [5]): ≥ 20 µM
- Kd (HLA-A*03:01; [5]): ≥ 20 µM
- Kd (HLA-A*31:01; [5]): ≥ 20000 nM
- Kd (HLA-B*07:02; [5]): ≥ 20 µM
- Kd (HLA-A*02:01 [2]; [5]): ≥ 20 µM
- Kd (HLA-B*08:01; [5]): ≥ 20 µM
- Kd (HLA-B*44:02; [5]): ≥ 20 µM
- Kd (HLA-B*35:01; source organism: Salmonella enterica subsp. enterica serovar Typhimurium): ≥ 20000 nM

Sequence: EYVGKTVWF
- Kd (HLA-A*30:01; source organism: West Nile virus SPU116/89): ≥ 20000 nM

Sequence: FVQGVIWNI
- Kd (HLA-A*23:01): 36.5 nM

Sequence: HTAEIQQFF
- Kd (HLA-A*69:01 [1]; [6]): 0.0328 µM
- Kd (HLA-B*15:01; [6]): 90.6 nM
- Kd (HLA-A*01:01; [6]): 0.67 µM
- Kd (HLA-A*26:01; [6]): 0.00541 µM
- Kd (HLA-A*31:01; [6]): 1150 nM
- Kd (HLA-B*35:01; [6]): 171 nM

Sequence: QSPQPVRVK
- Kd (HLA-A*69:01 [1]; [7]): ≥ 20 µM
- Kd (HLA-B*15:01; [7]): ≥ 20000 nM
- Kd (HLA-A*24:03; [7]): ≥ 20 µM
- Kd (HLA-B*40:01; [7]): ≥ 20 µM
- Kd (HLA-B*58:01; [7]): ≥ 20 µM
- Kd (HLA-A*30:01; [7]): 3750 nM
- Kd (HLA-A*01:01; [7]): ≥ 20 µM
- Kd (HLA-A*11:01; [7]): 12.2 µM
- Kd (HLA-A*26:01; [7]): ≥ 20 µM
- Kd (HLA-B*27:05; [7]): ≥ 20 µM
- Kd (HLA-A*03:01; [7]): 19.3 µM
- Kd (HLA-B*07:02; [7]): ≥ 20 µM
- Kd (HLA-A*02:01 [2]; [7]): ≥ 20 µM
- Kd (HLA-B*08:01; [7]): ≥ 20 µM

Sequence: QTSTLYDFY
- Kd (HLA-A*69:01 [1]; [8]): ≥ 20 µM
- Kd (HLA-B*15:01; [8]): 1710 nM
- Kd (HLA-A*24:03; [8]): ≥ 20 µM
- Kd (HLA-B*40:01; [8]): ≥ 20 µM
- Kd (HLA-B*58:01; [8]): 3.79 µM
- Kd (HLA-A*01:01; [8]): 0.0397 µM
- Kd (HLA-A*11:01; [8]): ≥ 20 µM
- Kd (HLA-A*26:01; [8]): ≥ 20 µM
- Kd (HLA-B*27:05; [8]): ≥ 20 µM
- Kd (HLA-A*03:01; [8]): ≥ 20 µM
- Kd (HLA-A*31:01; [8]): ≥ 20000 nM
- Kd (HLA-B*07:02; [8]): ≥ 20 µM
- Kd (HLA-A*02:01 [2]; [8]): ≥ 20 µM
- Kd (HLA-B*08:01; [8]): ≥ 20 µM
- Kd (HLA-B*44:02; [8]): ≥ 20 µM
- Kd (HLA-B*35:01; [8]): 28.6 nM

Sequence: RLNLKTSFH
- Kd (HLA-A*30:01; source organism: Sapporo rat virus): 100 nM
- Kd (HLA-A*11:01; [9]): 1.35 µM
- Kd (HLA-A*03:01; [9]): 0.407 µM

Sequence: RVLDCRTAF
- Kd (HLA-B*15:01; source organism: Yellow fever virus 17D): 108 nM
- Kd (HLA-C*14:02): 349 nM
- Kd (HLA-B*46:01): ≥ 20 µM
- Kd (HLA-C*15:02): ≥ 20 µM
- Kd (HLA-B*51:01): ≥ 20 µM
- Kd (HLA-B*35:01; source organism: Yellow fever virus): 324 nM

Sequence: SLQECVKMA
- Kd (HLA-A*02:11; [8]): 2.1 nM
- Kd (HLA-A*02:01 [3]; [8]): 0.7 nM

Sequence: TTRAWFDKK
- Kd (HLA-A*69:01 [1]; [10]): ≥ 20 µM
- Kd (HLA-B*15:01; [10]): ≥ 20000 nM
- Kd (HLA-A*24:03; [10]): ≥ 20 µM
- Kd (HLA-B*40:01; [10]): ≥ 20 µM
- Kd (HLA-B*58:01; [10]): ≥ 20 µM
- Kd (HLA-A*30:01; [10]): 0.23 nM
- Kd (HLA-A*01:01; [10]): ≥ 20 µM
- Kd (HLA-A*11:01; [10]): 0.127 µM
- Kd (HLA-A*26:01; [10]): ≥ 20 µM
- Kd (HLA-B*27:05; [10]): ≥ 20 µM
- Kd (HLA-A*03:01; [10]): 2.99 µM
- Kd (HLA-A*31:01; [10]): 60.7 nM
- Kd (HLA-B*07:02; [10]): ≥ 20 µM
- Kd (HLA-A*02:01 [2]; [10]): ≥ 20 µM
- Kd (HLA-B*08:01; [10]): ≥ 20 µM

Sequence: VLAEAMSQV
- Kd (HLA-A*69:01 [4]): 82.7 nM
- Kd (HLA-A*02:11; [11]): ≤ 0.1 nM
- Kd (HLA-A*02:19): 1.25 nM
- Kd (HLA-A*02:01 [3]; [11]): 27.5 nM
- Kd (HLA-A*02:06): 13.1 nM
- Kd (HLA-A*02:02): 2.43 nM
- Kd (HLA-A*02:03): 4.37 nM

Sequence: WAGIWGGKL
- Kd (HLA-A*69:01 [1]; [12]): 0.242 µM
- Kd (HLA-B*15:01; [12]): ≥ 20000 nM
- Kd (HLA-B*40:01; [12]): ≥ 20 µM
- Kd (HLA-B*58:01; [12]): ≥ 20 µM
- Kd (HLA-A*01:01; [12]): ≥ 20 µM
- Kd (HLA-A*11:01; [12]): ≥ 20 µM
- Kd (HLA-A*26:01; [12]): ≥ 20 µM
- Kd (HLA-B*27:05; [12]): ≥ 20 µM
- Kd (HLA-A*03:01; [12]): ≥ 20 µM
- Kd (HLA-A*31:01; [12]): ≥ 20000 nM
- Kd (HLA-B*07:02; [12]): 13 µM
- Kd (HLA-A*02:01 [2]; [12]): ≥ 20 µM
- Kd (HLA-B*08:01; [12]): ≥ 20 µM
- Kd (HLA-B*44:02; [12]): ≥ 20 µM
- Kd (HLA-B*35:01; [12]): 342 nM
